Results published in patent US20230144436A1 (DYNE THERAPEUTICS, published 2023).

T1: cynomolgus monkey transferrin receptor 1 (cynomolgus monkey (Macaca fascicularis), UniProt Q5RDH6 89-760 (Pongo abelii entry), limits assumed)
T1 construct: also called cyTfR1; Cyno TfR1
T1 chain: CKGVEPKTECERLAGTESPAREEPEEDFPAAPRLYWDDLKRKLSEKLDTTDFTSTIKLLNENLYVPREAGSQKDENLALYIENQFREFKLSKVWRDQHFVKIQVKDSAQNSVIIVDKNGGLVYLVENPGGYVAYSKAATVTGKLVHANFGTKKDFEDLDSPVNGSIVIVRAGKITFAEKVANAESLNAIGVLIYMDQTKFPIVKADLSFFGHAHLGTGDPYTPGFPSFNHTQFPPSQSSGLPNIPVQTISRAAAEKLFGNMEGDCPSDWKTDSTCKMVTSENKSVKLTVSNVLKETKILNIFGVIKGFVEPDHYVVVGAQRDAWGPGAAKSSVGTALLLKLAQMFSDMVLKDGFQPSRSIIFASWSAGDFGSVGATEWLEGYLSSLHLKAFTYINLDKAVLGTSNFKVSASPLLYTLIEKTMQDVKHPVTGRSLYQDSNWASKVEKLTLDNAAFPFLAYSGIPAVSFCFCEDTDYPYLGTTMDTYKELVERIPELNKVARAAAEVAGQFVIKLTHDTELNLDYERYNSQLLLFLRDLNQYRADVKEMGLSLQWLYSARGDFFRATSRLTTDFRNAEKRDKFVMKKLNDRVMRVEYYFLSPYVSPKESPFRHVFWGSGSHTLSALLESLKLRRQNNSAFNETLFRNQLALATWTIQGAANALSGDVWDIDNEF

B1: 4-J22 (antibody, V domains shown)
VH: EVQLQQSGAELVRSGASVKLSCTASGFNIKDYYIHWVKQRPEQGLEWIGWIDPENADTEYAPKFQGKATMTPDTSSNTAYLQLSSLTSEDTAVYYCYAWDYSMDYWGQGTSVTVSS
VL: DVVMTQTPLSLSVSLGDQASISCRSSQSLVHSNGNTYLHWYLQKPGQSPKLLIYKVSNRFSGVPDRFSGSGSGTDFILKISRVEAEDLGVYFCSQNTHVPYTFGGGTRLEIK
notes: Tested as a mouse monoclonal IgG
B2: 3-M9 (antibody, V domains shown)
VH: EVQLQQSGAELVRPGASVKLSCTASDFNIKDDYIHWVKQRPEQGLEWIGRIDPANGNTKYAPKFQDKATITADTSSNTAYLQLSSLTSEDTAVYYCALGYTYWGQGTTLTVSS
VL: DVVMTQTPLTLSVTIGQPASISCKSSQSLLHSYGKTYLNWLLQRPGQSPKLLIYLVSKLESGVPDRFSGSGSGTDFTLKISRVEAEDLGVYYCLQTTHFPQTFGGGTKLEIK
notes: Tested as a mouse monoclonal IgG; also called 3-M09
B3: 4-C5 (antibody, V domains shown)
VH: QVQLQQSGAELMKPGASVKISCKATGYTFSNYWIEWVKQRPGHGLEWIGEILPGSGSTNYNENFKGKATFTADTSSNTAYMQLSSLTSEDSAVYYCARRGAYGNFHYWGQGTTLTVSS
VL: EIVLTQSPALMAASPGEKVTITCSVSSSISSSNLHWYQQKSETSPKPWIYGTSNLASGVPVRFSGSGSGTSYSLTISSMEAEDAATYYCQQWRSYPYTFGGGTKLEIK
notes: Tested as a mouse monoclonal IgG; also called 4-C05
B4: 4-O12 (antibody, V domains shown)
VH: EVQLQQSGAELVRPGASVKLSCTASGFNIVDDYMHWVKQRPEQGLEWIGWIYPENADTEYASKFQGKATITADTSSNTAYLQLSSLTSEDTAVYYCTTATGTGWFAYWGQGTLVTVSA
VL: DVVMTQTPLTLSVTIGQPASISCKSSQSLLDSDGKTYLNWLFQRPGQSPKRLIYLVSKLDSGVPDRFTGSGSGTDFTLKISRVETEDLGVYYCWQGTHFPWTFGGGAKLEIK
notes: as for B1
B5: 6-D3 (antibody, V domains shown)
VH: QVQLQQPGAELVKPGASVKMSCKASGYTFTRHWITWVKQRPGQGLEWIGDIYPGSGRTNYNEKFKSTATLTVDTSSSTAYMQLSSLTSEDSAVYYCARDGYLYINYFDYWGQGTTLTVSS
VL: ENVLTQSPAIMSASPGEKVTMTCSASSSVSFMHWFQQKSSTSPKLWIYDTSKLASGVPGRFSGSGSGSSYSLTISSMAAEDVATYYCFQGSGYPYTFGGGTKLEIK
notes: Tested as a mouse monoclonal IgG; also called 6-D03
B6: 8-D15 (antibody, V domains shown)
VH: QVQLKESGPGLVAPSQSLSITCTVSGFSLTSYAITWVRQSPGKGLEWLGLIWTGGGTNYNSALKSRLSISKDNSKSQVFLKMNSLQTDDTARYYCARIYDGYYRYFDVWGTGTTVTVSS
VL: RIVLTQTPKFLLVSAGDRVTMTCKASQSVSNDVAWYQQKPGQSPKLLIYYASNRYTGVPDRFTGSGYGTDFTFTISTVQAEDLAVYFCQQDYSSPWTFGGGTKLEIK
notes: as for B1
B7: 8-O17 (antibody, V domains shown)
VH: QVQLKESGPGLVAPSQSLSITCTVSGFSLTNYGVHWVRQPPGKGLEWLVVIWNDGSATYNSALESRLSISKDNSKSQVFLKMNSLQTDDTAMYYCARHESSNPFAYWGQGTLVTVSA
VL: DILLTQSPAILSVSPGERVSFSCRASQSIGTSIHWYQQRTNGSPRLLIKSASESIAGIPSRFSGSGSGTDFTLSINSVESEDIADYYCQQNNRWPYTFGGGTKLEIK
notes: as for B1
B8: 8-K6 (antibody, V domains shown)
VH: QVHLQQPGAELVKPGASVKMSCKASGYTFTSYWITWVKQRPGQGLEWIGDIFPNSGRTNYDEKFKSKATLTVDTSSSTAYMQLSSLTSEDSAVYFCAREGNFGSLDYWGQGTTLTVSS
VL: QIVLTQSPAIMSASPGEKVTMTCSANSNLNYMNWYHQKSGTSPKRWIYDTSKLASGVPARFSASGSGTSYSLTISSMEAEDAATYYCQQWSRNPLTFGAGTRLELK
notes: Tested as a mouse monoclonal IgG; also called 8-K06

Assays:
[1] = target: T2, human transferrin receptor 1 (human, UniProt P02786 89-760, limits assumed); experiment: average KD, antibody alone; method not given
T2 construct: also called hTfR1; huTfR1

[2] = target: T1, cynomolgus monkey transferrin receptor 1; experiment: average KD, antibody alone; method not given
[3] = target: T2, human transferrin receptor 1; experiment: Carterra LSA SPR array, IgG captured on anti-IgG lawn, hTfR1 as analyte, 25 C, 1:1 Langmuir fit
Method: Selected anti-TfR1 antibodies were tested for their binding affinity to human TfR1 for measurement of Ka (association rate constant), Kd (dissociation rate constant), and KD (affinity). […] The binding experiment was performed on Carterra LSA at 25 C. An anti-mouse IgG and anti-human IgG antibody “lawn” was prepared on a HC30M chip by amine coupling. 59 IgGs (58 mouse mAbs and 1 human mAb) were captured on the chip. Dilution series of hTfR1, cyTfR1, and hTfR2 were injected to the chip for binding (starting from 1000 nM, 1:3 dilution, 8 concentrations).
Binding data were referenced by subtracting the responses from a buffer analyte injection and globally fitting to a 1:1 Langmuir binding model for estimate of Ka (association rate constant), Kd (dissociation rate constant), and KD (affinity) using the Carterra™ Kinetics software. 5-6 concentrations were used for curve fitting.

| Binder | Kd [1] | Kd [2] | Kd [3] | kon [3] |
| --- | --- | --- | --- | --- |
| B1 | 3.41 nM | 1.37 nM | – | – |
| B2 | 2.5 nM | 4.37 nM | 2.54 nM | 150000 M⁻¹ s⁻¹ |
| B3 | 1.38 nM | 13.6 nM | 1.61 nM | 30100 M⁻¹ s⁻¹ |
| B4 | 1.27 nM | 270 nM | 1.8 nM | 79800 M⁻¹ s⁻¹ |
| B5 | 0.986 nM | 0.778 nM | 0.986 nM | 108000 M⁻¹ s⁻¹ |
| B6 | 9.15 nM | 11.1 nM | 8.22 nM | 31300 M⁻¹ s⁻¹ |
| B7 | 2.24 nM | 1.1 nM | 1.83 nM | 49900 M⁻¹ s⁻¹ |
| B8 | 0.0678 nM | 0.376 nM | 0.0694 nM | 144000 M⁻¹ s⁻¹ |
